Measurements from patent US20240383984A1 (Genentech, published 2024).

T1: human FcRH5 protein fragment (soluble) (human, UniProt Q96RD9 16-851)
T1 construct: whole entry named; also called soluble human FcRH5; Human FcRH5 (BIACORE analyte)
T1 sequence: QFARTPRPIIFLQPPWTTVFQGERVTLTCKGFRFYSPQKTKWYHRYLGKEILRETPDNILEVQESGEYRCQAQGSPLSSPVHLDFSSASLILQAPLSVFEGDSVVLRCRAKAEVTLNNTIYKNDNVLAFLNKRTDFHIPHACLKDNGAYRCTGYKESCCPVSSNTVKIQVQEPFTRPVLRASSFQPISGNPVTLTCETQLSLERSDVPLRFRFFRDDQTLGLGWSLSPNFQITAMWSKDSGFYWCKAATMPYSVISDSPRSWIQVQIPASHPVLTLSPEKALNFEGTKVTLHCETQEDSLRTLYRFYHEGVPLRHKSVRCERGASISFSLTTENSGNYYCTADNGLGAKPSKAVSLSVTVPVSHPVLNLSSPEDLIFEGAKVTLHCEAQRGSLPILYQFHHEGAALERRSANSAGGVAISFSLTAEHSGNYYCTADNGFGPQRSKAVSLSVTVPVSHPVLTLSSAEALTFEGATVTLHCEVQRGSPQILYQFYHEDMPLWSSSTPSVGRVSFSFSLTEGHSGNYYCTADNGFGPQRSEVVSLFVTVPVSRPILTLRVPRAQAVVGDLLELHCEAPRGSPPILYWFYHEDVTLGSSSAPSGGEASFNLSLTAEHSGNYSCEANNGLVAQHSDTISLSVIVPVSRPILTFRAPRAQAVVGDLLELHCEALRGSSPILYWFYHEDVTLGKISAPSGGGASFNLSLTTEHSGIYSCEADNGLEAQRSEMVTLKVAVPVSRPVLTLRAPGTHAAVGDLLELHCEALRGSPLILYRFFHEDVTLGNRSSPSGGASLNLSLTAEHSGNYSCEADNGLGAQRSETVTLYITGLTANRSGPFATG


Key:
[1] = molecular target: T1, human FcRH5 protein fragment (soluble); experiment: BIACORE, human IgG1, soluble human FcRH5
[2] = molecular target: T1, human FcRH5 protein fragment (soluble); experiment: SPR (BIACORE), IgG captured via anti-human IgG, FcRH5 protein fragment as analyte (100 and 500 nM)
Method: (§1) Briefly, a human IgG capture surface was generated on a Series S CM5 chip using amine coupling and the human IgG capture kit (GE Life Sciences, Piscataway, NJ). Test antibodies were then captured on flow cells 2, 3, or 4, with flow cell 1 used as a reference. An FcRH5 protein fragment was used as the analyte, with a flow rate of […]. Between injections the capture surface was regenerated by a 30-second injection of 3M magnesium chloride or 10 mM glycine, pH 1.5. Interactions were assessed at 25° C. in 10 mM HEPES pH7.4, 150 mM NaCl, and 0.05% Tween 20 (HBSP). Reference data from the reference flow cell and from injection of buffer alone were subtracted prior to kinetic analysis. Kinetic information was calculated by fitting data to a 1:1 binding model. Reference subtraction and data fitting were performed using BIAevaluation software (GE Life Sciences, Piscataway, NJ).
(§2) For affinity screening of HVR-H2 Trp52 and Met64 variants (Table 7), antibodies were expressed by transient transfection of Expi293 cells and purified using tip columns that were custom packed with affinity resin MabSelect SuRe (Glygen Corp., Columbia, MD & GE Life Sciences, Piscataway, NJ). […] Binding of FcRH5 protein fragment to captured antibodies was monitored at 100 nM and 500 nM. Association and dissociation were monitored at a flow rate of 40 μl/min, for 180 s and 300 s, respectively.

[3] = molecular target: T1, human FcRH5 protein fragment (soluble); experiment: SPR, hIgG capture, screening
Method: as §1, §2

Row | Binder | Fold improvement over hu1G7.v1 [1] [fold] | Kd [1] [nM] | Kd [2] [nM] | Kd [3] [nM]
1 | 1G7.v1C (antibody, human IgG1, V domains shown, human IgG1 with the light chain of hu1G7.v1; also called C (hu1G7.v1 heavy chain S28P)) VH: EVQLVESGPGLVKPSETLSLTCTVSGFPLTRFGVHWVRQPPGKGLEWLGVIWRGGSTDYNAAFMSRLTISKDNSKNQVSLKLSSVTAADTAVYYCSNHYYGSSDYALDNWGQGTLVTVSS VL: DIQMTQSPSSLSASVGDRVTITCKASQDVSNIVVWFQQKPGKSPKLLIYSASYRYTGVPSRFSGSGSGTDFTLTISSLQPEDFATYYCQQHYSSPYTFGQGTKVEIK | 1.1 | 13.3 | – | –
2 | hu1G7.v1 heavy chain W52Y with light chain of hu1G7.v1.4 (antibody, V domains shown, human IgG) VH: EVQLVESGPGLVKPSETLSLTCTVSGFSLTRFGVHWVRQPPGKGLEWLGVIYRGGSTDYNAAFMSRLTISKDNSKNQVSLKLSSVTAADTAVYYCSNHYYGSSDYALDNWGQGTLVTVSS VL: DIQMTQSPSSLSASVGDRVTITCKASQDVRNLVVWFQQKPGKAPKLLIYSGSYRYSGVPSRFSGSGSGTDFTLTISSLQPEDFATYYCQQHYSPPYTFGQGTKVEIK | – | – | 131 | 130
3 | hu1G7.v1 heavy chain W52Y with light chain of hu1G7.v1.3 (antibody, V domains shown, human IgG) VH: EVQLVESGPGLVKPSETLSLTCTVSGFSLTRFGVHWVRQPPGKGLEWLGVIYRGGSTDYNAAFMSRLTISKDNSKNQVSLKLSSVTAADTAVYYCSNHYYGSSDYALDNWGQGTLVTVSS VL: DIQMTQSPSSLSASVGDRVTITCKASQDVRNIVVWFQQKPGKAPKLLIYSGSYRYSGVPSRFSGSGSGTDFTLTISSLQPEDFATYYCQQQYSPPYTFGQGTKVEIK | – | – | 641 | 640
4 | hu1G7.v1 heavy chain W52Y with light chain of hu1G7.v1 (antibody, V domains shown, human IgG) VH: EVQLVESGPGLVKPSETLSLTCTVSGFSLTRFGVHWVRQPPGKGLEWLGVIYRGGSTDYNAAFMSRLTISKDNSKNQVSLKLSSVTAADTAVYYCSNHYYGSSDYALDNWGQGTLVTVSS VL: DIQMTQSPSSLSASVGDRVTITCKASQDVSNIVVWFQQKPGKSPKLLIYSASYRYTGVPSRFSGSGSGTDFTLTISSLQPEDFATYYCQQHYSSPYTFGQGTKVEIK | – | – | 146 | 150
5 | hu1G7.v1 heavy chain W52L with light chain of hu1G7.v1.7 (antibody, V domains shown, human IgG) VH: EVQLVESGPGLVKPSETLSLTCTVSGFSLTRFGVHWVRQPPGKGLEWLGVILRGGSTDYNAAFMSRLTISKDNSKNQVSLKLSSVTAADTAVYYCSNHYYGSSDYALDNWGQGTLVTVSS VL: DIQMTQSPSSLSASVGDRVTITCKASQDVRNLVVWFQQKPGKAPKLLIYSGYYRYTGVPSRFSGSGSGTDFTLTISSLQPEDFATYYCQQHYQPPYTFGQGTKVEIK | – | – | 129 | 130
6 | hu1G7.v1 heavy chain W52L with light chain of hu1G7.v1.4 (antibody, V domains shown, human IgG) VH: EVQLVESGPGLVKPSETLSLTCTVSGFSLTRFGVHWVRQPPGKGLEWLGVILRGGSTDYNAAFMSRLTISKDNSKNQVSLKLSSVTAADTAVYYCSNHYYGSSDYALDNWGQGTLVTVSS VL: DIQMTQSPSSLSASVGDRVTITCKASQDVRNLVVWFQQKPGKAPKLLIYSGSYRYSGVPSRFSGSGSGTDFTLTISSLQPEDFATYYCQQHYSPPYTFGQGTKVEIK | – | – | 92 | 92
7 | hu1G7.v1 heavy chain W52Y with light chain of hu1G7.v1.5 (antibody, V domains shown, human IgG) VH: EVQLVESGPGLVKPSETLSLTCTVSGFSLTRFGVHWVRQPPGKGLEWLGVIYRGGSTDYNAAFMSRLTISKDNSKNQVSLKLSSVTAADTAVYYCSNHYYGSSDYALDNWGQGTLVTVSS VL: DIQMTQSPSSLSASVGDRVTITCKASQDVSNIVVWFQQKPGKSPKLLIYSGYYRYTGVPSRFSGSGSGTDFTLTISSLQPEDFATYYCQQQFQPPYTFGQGTKVEIK | – | – | 177 | 180
8 | 1G7.v1D (antibody, human IgG1, V domains shown, human IgG1 with the light chain of hu1G7.v1; also called D (hu1G7.v1 heavy chain L29T)) VH: EVQLVESGPGLVKPSETLSLTCTVSGFSTTRFGVHWVRQPPGKGLEWLGVIWRGGSTDYNAAFMSRLTISKDNSKNQVSLKLSSVTAADTAVYYCSNHYYGSSDYALDNWGQGTLVTVSS VL: DIQMTQSPSSLSASVGDRVTITCKASQDVSNIVVWFQQKPGKSPKLLIYSASYRYTGVPSRFSGSGSGTDFTLTISSLQPEDFATYYCQQHYSSPYTFGQGTKVEIK | 2.2 | 6.7 | – | –
9 | hu1G7.v1 heavy chain W52L with light chain of hu1G7.v1.5 (antibody, V domains shown, human IgG) VH: EVQLVESGPGLVKPSETLSLTCTVSGFSLTRFGVHWVRQPPGKGLEWLGVILRGGSTDYNAAFMSRLTISKDNSKNQVSLKLSSVTAADTAVYYCSNHYYGSSDYALDNWGQGTLVTVSS VL: DIQMTQSPSSLSASVGDRVTITCKASQDVSNIVVWFQQKPGKSPKLLIYSGYYRYTGVPSRFSGSGSGTDFTLTISSLQPEDFATYYCQQQFQPPYTFGQGTKVEIK | – | – | 125 | 130
10 | hu1G7.v1 heavy chain W52H with light chain of hu1G7.v1.7 (antibody, V domains shown, human IgG) VH: EVQLVESGPGLVKPSETLSLTCTVSGFSLTRFGVHWVRQPPGKGLEWLGVIHRGGSTDYNAAFMSRLTISKDNSKNQVSLKLSSVTAADTAVYYCSNHYYGSSDYALDNWGQGTLVTVSS VL: DIQMTQSPSSLSASVGDRVTITCKASQDVRNLVVWFQQKPGKAPKLLIYSGYYRYTGVPSRFSGSGSGTDFTLTISSLQPEDFATYYCQQHYQPPYTFGQGTKVEIK | – | – | 89.8 | 90
11 | hu1G7.v1 heavy chain W52Y with light chain of hu1G7.v1.7 (antibody, V domains shown, human IgG) VH: EVQLVESGPGLVKPSETLSLTCTVSGFSLTRFGVHWVRQPPGKGLEWLGVIYRGGSTDYNAAFMSRLTISKDNSKNQVSLKLSSVTAADTAVYYCSNHYYGSSDYALDNWGQGTLVTVSS VL: DIQMTQSPSSLSASVGDRVTITCKASQDVRNLVVWFQQKPGKAPKLLIYSGYYRYTGVPSRFSGSGSGTDFTLTISSLQPEDFATYYCQQHYQPPYTFGQGTKVEIK | – | – | 136 | 140
12 | hu1G7.v1 heavy chain W52L with light chain of hu1G7.v1.3 (antibody, V domains shown, human IgG) VH: EVQLVESGPGLVKPSETLSLTCTVSGFSLTRFGVHWVRQPPGKGLEWLGVILRGGSTDYNAAFMSRLTISKDNSKNQVSLKLSSVTAADTAVYYCSNHYYGSSDYALDNWGQGTLVTVSS VL: DIQMTQSPSSLSASVGDRVTITCKASQDVRNIVVWFQQKPGKAPKLLIYSGSYRYSGVPSRFSGSGSGTDFTLTISSLQPEDFATYYCQQQYSPPYTFGQGTKVEIK | – | – | 239 | 240
13 | hu1G7.v87 (antibody, V domains shown, Human IgG) VH: EVQLVESGPGLVKPSETLSLTCTVSGFSLTRFGVHWVRQPPGKGLEWLGVIWRGGSTDYNAAFVSRLTISKDNSKNQVSLKLSSVTAADTAVYYCSNHYYGSSDYALDNWGQGTLVTVSS VL: DIQMTQSPSSLSASVGDRVTITCKASQDVSNIVVWFQQKPGKSPKLLIYSASYRYTGVPSRFSGSGSGTDFTLTISSLQPEDFATYYCQQHYSSPYTFGQGTKVEIK | – | – | 27.4 | 27
14 | hu1G7.v1 heavy chain W52L with light chain of hu1G7.v1.6 (antibody, V domains shown, human IgG) VH: EVQLVESGPGLVKPSETLSLTCTVSGFSLTRFGVHWVRQPPGKGLEWLGVILRGGSTDYNAAFMSRLTISKDNSKNQVSLKLSSVTAADTAVYYCSNHYYGSSDYALDNWGQGTLVTVSS VL: DIQMTQSPSSLSASVGDRVTITCKASQDVSNIVVWFQQKPGKAPKLLIYSGYYRYSGVPSRFSGSGSGTDFTLTISSLQPEDFATYYCQQQYQPPYTFGQGTKVEIK | – | – | 250 | 250
15 | hu1G7.v1 heavy chain W52Y with light chain of hu1G7.v1.6 (antibody, V domains shown, human IgG) VH: EVQLVESGPGLVKPSETLSLTCTVSGFSLTRFGVHWVRQPPGKGLEWLGVIYRGGSTDYNAAFMSRLTISKDNSKNQVSLKLSSVTAADTAVYYCSNHYYGSSDYALDNWGQGTLVTVSS VL: DIQMTQSPSSLSASVGDRVTITCKASQDVSNIVVWFQQKPGKAPKLLIYSGYYRYSGVPSRFSGSGSGTDFTLTISSLQPEDFATYYCQQQYQPPYTFGQGTKVEIK | – | – | 529 | 530
16 | hu1G7.v1 heavy chain W52L with light chain of hu1G7.v1 (antibody, V domains shown, human IgG) VH: EVQLVESGPGLVKPSETLSLTCTVSGFSLTRFGVHWVRQPPGKGLEWLGVILRGGSTDYNAAFMSRLTISKDNSKNQVSLKLSSVTAADTAVYYCSNHYYGSSDYALDNWGQGTLVTVSS VL: DIQMTQSPSSLSASVGDRVTITCKASQDVSNIVVWFQQKPGKSPKLLIYSASYRYTGVPSRFSGSGSGTDFTLTISSLQPEDFATYYCQQHYSSPYTFGQGTKVEIK | – | – | 103 | 100
